These results are taken from a protein production outcome set (Wang et al. 2014).

The nature of this data set: label from the status in PepcDB records.
As for “MDSGFTLRAPRNDKRRNPMPAILGTGEHRYRVVENFAKLPDGWQLTDVAAVAVDSLDRVYVFNRGAHPMVVLDREGNFLRSWGEGLFSRAHGLHIDADDNLYCTDDGDHTVRKCTSDGKVLLTIGIPAKPAPFMSGEPFHRCTHTALSPKGEIYVSDGYGNARVHKFTPDGKLIKSWGEPGTDPGQFNIVHNIATDSDGWVYVADRENHRVQVFNGEGKYETQWNNLHRPCALCCCGGRSPTFVIGELGPGLDINRNVPNLGPRLSIVDAKGNRIARLGGEEGPGVASGKFLAPHGIALDSKGDIYVGEVGVTNWATSFPDQEMPAVVRATRCLQKLERVRE”, the protein production result was “failed”.
As for “MDSGTINIKKWVVIYPVYINSKKTVAEGRRISVSKSCENPNCIEISDCCKHLKLPSAVEIDKAYPRDFMQVGRVRVQLKREDGTLLNPAITSRKHLMQKIAELVPRHPERVKKQEAQKAKKQEPQATTSTSGTSSKSGKGGKKKR”, the protein production entry is recorded as “failed”.
“MDSIKGVFTGNKDTPLEESNLPVEAFTLLRFADELKNARRLGKFKQYIVGRSSEATFADAFEKQEAVIRYLGALDATGENLQASQKQDAAKHCKCTITDVENTLSKFTWARQAHKKMTELKEGGKPLPKNMGEVFFSLCILICFFSSISSYV”: the protein production entry is given as “failed”.
As for “MDSNWINCPSVFSSSSSSSRRCQSRSDLYLGGGYEDLEGEDDLKAEFICPFCAEDFDIVGLCCHIDEEHPVEAKNGVCPVCTKRNLCLFLDERFYVQRRRRLRRGGYSSTYLALKKELREANLQSLLGGSSSFTSSTNIDSDPLLSSFMFNSPSVNQSANKSATPVTVGNAATKVSIKESLKRDIQEAPLSGEDQEKAKKSEFVRGLLLSTMLEDDF”, the protein production result is reported as “failed”.
For “MDSPKRGGPRVRPSFVFCTRTCFPTPPDRMSDSESADPHSPSPTGDGQDTEPRDADGHEVARRGDTEAMEGLLEQGMDPNHTNEHGHSLLMIAAYSDQPEMADLLIEHGADPNRSDPSGSTPLMGCCFKGLAEAAEVLIEAGADVNATGARGATALMYAATYGESALVDLLLEHGADPTTTNEQGQTAAEQAAAEGHEEIAERLRQATAGA”, the protein production result is listed as “failed”.
The same measure for “MDSRAAAEPIPHVSPSPFPNPSAVNQTLEERLGLDLVQVYDWDWWGTLVQSGESLLLILSTLWCILLARVVCQKLRLHGSADLCYATEFLLVILPCILLVSVAVDYSGYIGLLMLVATLWFLRTSRALERARTRVQFDLGGNRPMCLSILRALTHLITAVCILAIDFGSFYRPYRKSRQFGAKLMDTGIGLFVFTMAMVSRRTRHWSDLRRSVIYSALPLILLGLARTVSILTLSYGQDAHEYGQHLNAFFTLGFTKFLGSLVSILARKDLHLLPLGFGLLVIHQFGLSVLGISDYVMNEDVERSSFLNANREGLVSLPGFVGLFLLSIYVNRWMVAKSLLTYSEFVRKLRRLFYLVLILWTSFVISAYEIGISRVTCNLGYVIWMLAIGSTTLCASFGAIDFAINSVMPWDPNPWEDHEKGLLSGEAVVKKRGGSVVPFTISQALNKNGLTFFLVANILTGMVNIFLRPEDRSHSESVIILLVYMFLATKLVHELLKRGIRLA”: “failed”; for “MDSSDSHVGQDVYVDQGLGEPDRLERLWAPYRMSYINTRSGGKQSTTAKRDPFIEVPKMSDEDGLIVARGELVYCVLNLYPYNAGHMMVIPFRKEKNLEDLSLAESAELMLFTQTAIKALKQVSNPDAVNVGLNLGKASGGSVGDHLHVHVVPRWSGDANFMTVIDGVKVLPQTLRQTRAMLAQAWGTIDGAPGTVDPTLTSAIRTAAPKEH”: “failed”.
To “MDSVELCLPESFSLHYEEELLCRMSNKDRHIDSSCSSFIKTEPSSPASLTDSVNHHSPGGSSDASGSYSSTMNGHQNGLDSPPLYPSAPILGGSGPVRKLYDDCSSTIVEDPQTKCEYMLNSMPKRLCLVCGDIASGYHYGVASCEACKAFFKRTIQGNIEYSCPATNECEITKRRRKSCQACRFMKCLKVGMLKEGVRLDRVRGGRQKYKRRIDAENSPYLNPQLVQPAKKPYNKIVSHLLVAEPEKIYAMPDPTVPDSDIKALTTLCDLADRELVVIIGWAKHIPGFSTLSLADQMSLLQSAWMEILILGVVYRSLSFEDELVYADDYIMDEDQSKLAGLLDLNNAILQLVKKYKSMKLEKEEFVTLKAIALANSDSMHIEDVEAVQKLQDVLHEALQDYEAGQHMEDPRRAGKMLMTLPLLRQTSTKAVQHFYNIKLEGKVPMHKLFLEMLEAKV” belongs “not failed”.
